{
  "source": "patent US20140087995A1",
  "about": "(published 2014)",
  "binders": {"B1": {"name": "N^α1-[2-[2-[2-[[2-[2-[2-[[(4S)-4-carboxy-4-(19-carboxynonadecanoylamino)butanoyl]amino]ethoxy]ethoxy]acetyl]amino]ethoxy]ethoxy]acetyl]-[Glu14,Arg17,Pro21,Pro27 … (peptide)", "peptide": "{C20 diacid-γGlu-AEEA-AEEA}-KCNTATCATQRLAEFLRHSSPNFGAIPSSTNVGSNTP-NH2", "modifications": "disulfide 2-7 (inferred)", "notes": "also called compound 20"}, "B2": {"name": "N^α1-[(4S)-4-carboxy-4-(19-carboxynonadecanoylamino)butanoyl]-[Glu14,Arg17,Pro21,Pro27,Pro37]-h-amylin (peptide)", "peptide": "{C20 diacid-γGlu}-KCNTATCATQRLAEFLRHSSPNFGAIPSSTNVGSNTP-NH2", "modifications": "disulfide 2-7 (inferred)", "notes": "also called compound 8"}, "B3": {"name": "N^ε1-[(4S)-4-carboxy-4-(19-carboxynonadecanoylamino)butanoyl]-[His14,Arg17,Pro21,Pro27,Pro34,Pro37]-h-amylin (peptide)", "peptide": "K([γGlu-C20 diacid])CNTATCATQRLAHFLRHSSPNFGAIPSSTNVGPNTP-NH2", "modifications": "disulfide 2-7 (inferred)"}, "B4": {"name": "N^α1-[(4S)-4-carboxy-4-(19-carboxynonadecanoylamino)butanoyl]-[Asp14,Arg17,Pro21,Pro27,Pro37]-h-amylin (peptide)", "peptide": "{C20 diacid-γGlu}-KCNTATCATQRLADFLRHSSPNFGAIPSSTNVGSNTP-NH2", "modifications": "disulfide 2-7", "SMILES": "CC[C@H](C)[C@H](NC(=O)[C@H](C)NC(=O)CNC(=O)[C@H](Cc1ccccc1)NC(=O)[C@H](CC(N)=O)NC(=O)[C@@H]1CCCN1C(=O)[C@H](CO)NC(=O)[C@H](CO)NC(=O)[C@H](Cc1c[nH]cn1)NC(=O)[C@H](CCCNC(=N)N)NC(=O)[C@H](CC(C)C)NC(=O)[C@H](Cc1ccccc1)NC(=O)[C@H](CC(=O)O)NC(=O)[C@H](C)NC(=O)[C@H](CC(C)C)NC(=O)[C@H](CCCNC(=N)N)NC(=O)[C@H](CCC(N)=O)NC(=O)[C@@H](NC(=O)[C@H](C)NC(=O)[C@@H]1CSSC[C@H](NC(=O)[C@H](CCCCN)NC(=O)CC[C@H](NC(=O)CCCCCCCCCCCCCCCCCCC(=O)O)C(=O)O)C(=O)N[C@@H](CC(N)=O)C(=O)N[C@@H]([C@@H](C)O)C(=O)N[C@@H](C)C(=O)N[C@@H]([C@@H](C)O)C(=O)N1)[C@@H](C)O)C(=O)N1CCC[C@H]1C(=O)N[C@@H](CO)C(=O)N[C@@H](CO)C(=O)N[C@H](C(=O)N[C@@H](CC(N)=O)C(=O)N[C@H](C(=O)NCC(=O)N[C@@H](CO)C(=O)N[C@@H](CC(N)=O)C(=O)N[C@H](C(=O)N1CCC[C@H]1C(N)=O)[C@@H](C)O)C(C)C)[C@@H](C)O", "notes": "also called compound 10"}, "B5": {"name": "N^ε1-[(4S)-4-carboxy-4-(19-carboxynonadecanoylamino)butanoyl]-[Glu14,Arg17,Pro21,Pro27,Pro34,Pro37]-h-amylin (peptide)", "peptide": "K([γGlu-C20 diacid])CNTATCATQRLAEFLRHSSPNFGAIPSSTNVGPNTP-NH2", "modifications": "disulfide 2-7 (inferred)"}, "B6": {"name": "N^α1-[(4S)-4-carboxy-4-(19-carboxynonadecanoylamino)butanoyl]-[Glu14,Arg17,Pro21,Pro28,Glu35]-h-amylin (peptide)", "peptide": "{C20 diacid-γGlu}-KCNTATCATQRLAEFLRHSSPNFGAILPSTNVGSETY-NH2", "modifications": "disulfide 2-7 (inferred)", "notes": "also called compound 33"}, "B7": {"name": "N^α1N^α1-[(4S)-4-carboxy-4-(19-carboxynonadecanoylamino)butanoyl]-[Glu14,Arg17,Pro21,Pro27,Glu35]-h-amylin (peptide)", "peptide": "{C20 diacid-γGlu}-KCNTATCATQRLAEFLRHSSPNFGAIPSSTNVGSETY-NH2", "modifications": "disulfide 2-7 (inferred)", "notes": "also called compound 22"}, "B8": {"name": "N^α1-[(4S)-4-carboxy-4-(19-carboxynonadecanoylamino)butanoyl]-[Glu14,Arg17,Pro21,Pro26,Pro37]-h-amylin (peptide)", "peptide": "{C20 diacid-γGlu}-KCNTATCATQRLAEFLRHSSPNFGAPLSSTNVGSNTP-NH2", "modifications": "disulfide 2-7 (inferred)", "notes": "also called compound 5"}, "B9": {"name": "N^α1-[(4S)-4-carboxy-4-(19-carboxynonadecanoylamino)butanoyl]-[Glu14,Arg17,Pro21,Pro27,Asp35,Pro37]-h-amylin (peptide)", "peptide": "{C20 diacid-γGlu}-KCNTATCATQRLAEFLRHSSPNFGAIPSSTNVGSDTP-NH2", "modifications": "disulfide 2-7 (inferred)", "notes": "also called compound 11"}, "B10": {"name": "N^α1-[(4S)-4-carboxy-4-[[(4S)-4-carboxy-4-(19-carboxynonadecanoylamino)butanoyl]amino]butanoyl]-[Glu14,Arg17,Pro21,Pro27,Pro37]-h-amylin (peptide)", "peptide": "{C20 diacid-γGlu-γGlu}-KCNTATCATQRLAEFLRHSSPNFGAIPSSTNVGSNTP-NH2", "modifications": "disulfide 2-7 (inferred)", "notes": "also called compound 14"}, "B11": {"name": "N^ε1-[(4S)-4-carboxy-4-[[(4S)-4-carboxy-4-(19-carboxynonadecanoylamino)butanoyl]amino]butanoyl]-[Glu14,Arg17,Pro21,Pro27,Pro37]-h-amylin (peptide)", "peptide": "K([γGlu-γGlu-C20 diacid])CNTATCATQRLAEFLRHSSPNFGAIPSSTNVGSNTP-NH2", "modifications": "disulfide 2-7 (inferred)", "notes": "also called compound 13"}, "B12": {"name": "N^ε1-[(4S)--4-carboxy-4-(19-carboxynonadecanoylamino)butanoyl]-[Glu14,Arg17,Pro21,Pro27,Pro37]-h-amylin (peptide)", "peptide": "K([γGlu-C20 diacid])CNTATCATQRLAEFLRHSSPNFGAIPSSTNVGSNTP-NH2", "modifications": "disulfide 2-7 (inferred)", "notes": "also called compound 12"}, "B13": {"name": "N^-1-[(4S)-4-carboxy-4-(19-carboxynonadecanoylamino)butanoyl]-Gly[Arg1,His14,Arg17,Pro21,Pro27,Pro34]-h-amylin (peptide)", "peptide": "{C20 diacid-γGlu}-GRCNTATCATQRLAHFLRHSSPNFGAIPSSTNVGPNTY-NH2", "modifications": "disulfide 3-8 (inferred)"}, "B14": {"name": "N^-1-[(4S)-4-carboxy-4-(19-carboxynonadecanoylamino)butanoyl]-Gly[Arg1,Ala14,Arg17,Pro21,Pro27,Pro34]-h-amylin (peptide)", "peptide": "{C20 diacid-γGlu}-GRCNTATCATQRLAAFLRHSSPNFGAIPSSTNVGPNTY-NH2", "modifications": "disulfide 3-8 (inferred)"}, "B15": {"name": "N^α1-[(4S)-4-carboxy-4-(19-carboxynonadecanoylamino)butanoyl]-[Glu14,Arg17,Pro21,Pro25,Pro28,Pro29,Pro37]-h-amylin (peptide)", "peptide": "{C20 diacid-γGlu}-KCNTATCATQRLAEFLRHSSPNFGPILPPTNVGSNTP-NH2", "modifications": "disulfide 2-7", "SMILES": "CC[C@H](C)[C@H](NC(=O)[C@@H]1CCCN1C(=O)CNC(=O)[C@H](Cc1ccccc1)NC(=O)[C@H](CC(N)=O)NC(=O)[C@@H]1CCCN1C(=O)[C@H](CO)NC(=O)[C@H](CO)NC(=O)[C@H](Cc1c[nH]cn1)NC(=O)[C@H](CCCNC(=N)N)NC(=O)[C@H](CC(C)C)NC(=O)[C@H](Cc1ccccc1)NC(=O)[C@H](CCC(=O)O)NC(=O)[C@H](C)NC(=O)[C@H](CC(C)C)NC(=O)[C@H](CCCNC(=N)N)NC(=O)[C@H](CCC(N)=O)NC(=O)[C@@H](NC(=O)[C@H](C)NC(=O)[C@@H]1CSSC[C@H](NC(=O)[C@H](CCCCN)NC(=O)CC[C@H](NC(=O)CCCCCCCCCCCCCCCCCCC(=O)O)C(=O)O)C(=O)N[C@@H](CC(N)=O)C(=O)N[C@@H]([C@@H](C)O)C(=O)N[C@@H](C)C(=O)N[C@@H]([C@@H](C)O)C(=O)N1)[C@@H](C)O)C(=O)N[C@@H](CC(C)C)C(=O)N1CCC[C@H]1C(=O)N1CCC[C@H]1C(=O)N[C@H](C(=O)N[C@@H](CC(N)=O)C(=O)N[C@H](C(=O)NCC(=O)N[C@@H](CO)C(=O)N[C@@H](CC(N)=O)C(=O)N[C@H](C(=O)N1CCC[C@H]1C(N)=O)[C@@H](C)O)C(C)C)[C@@H](C)O", "notes": "also called compound 4"}},
  "note": "Numbered stars: 1 amine (or outer) side, 2 acyl side, 3 side chain; on linkers, the order of the positions; unused ones are H or OH. Bridge positions count the residues as written; N and C are the ends. Side chains are listed from the residue outwards. Ends that are not written are not given here. * marks the point of attachment. C20 diacid = O=C(O)CCCCCCCCCCCCCCCCCCC(=O)*; γGlu = O=C(O)[C@H](CCC(=O)[*:2])N[*:1]; AEEA = NCCOCCOCC(=O)O",
  "data": [
    {"molecular_target": "T1, human amylin 3(a) receptor (human calcitonin receptor co-expressed with RAMP-3) (human, UniProt P30988 25-474; O60896 24-148, limits assumed)", "T1 sequence (looked up) 1": "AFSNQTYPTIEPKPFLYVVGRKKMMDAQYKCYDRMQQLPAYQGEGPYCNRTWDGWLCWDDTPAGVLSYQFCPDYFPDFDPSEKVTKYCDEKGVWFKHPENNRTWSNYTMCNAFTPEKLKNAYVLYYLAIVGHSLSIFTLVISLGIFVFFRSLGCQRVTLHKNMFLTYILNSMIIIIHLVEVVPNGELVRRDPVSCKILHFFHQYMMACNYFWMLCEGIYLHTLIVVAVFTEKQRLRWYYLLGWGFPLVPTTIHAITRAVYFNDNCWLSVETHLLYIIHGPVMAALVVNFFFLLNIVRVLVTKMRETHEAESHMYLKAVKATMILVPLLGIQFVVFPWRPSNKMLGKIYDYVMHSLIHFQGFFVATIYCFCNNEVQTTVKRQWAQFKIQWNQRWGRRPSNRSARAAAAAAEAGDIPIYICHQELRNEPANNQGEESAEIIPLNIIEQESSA", "T1 sequence (looked up) 2": "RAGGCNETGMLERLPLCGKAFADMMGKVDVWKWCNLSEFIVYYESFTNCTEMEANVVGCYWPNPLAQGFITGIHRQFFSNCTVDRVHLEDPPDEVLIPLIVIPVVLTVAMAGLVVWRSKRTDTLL", "experiment": "cell-based or functional assay", "values": [
      {"binder": "B1", "Ratio hCT/hAmylin funct.": 3.6},
      {"binder": "B2", "Ratio hCT/hAmylin funct.": 1.1},
      {"binder": "B3", "Ratio hCT/hAmylin funct.": 0.8},
      {"binder": "B4", "Ratio hCT/hAmylin funct.": 1},
      {"binder": "B5", "Ratio hCT/hAmylin funct.": 0.9},
      {"binder": "B6", "Ratio hCT/hAmylin funct.": 2.2},
      {"binder": "B7", "Ratio hCT/hAmylin funct.": 3.8},
      {"binder": "B8", "Ratio hCT/hAmylin funct.": 1},
      {"binder": "B9", "Ratio hCT/hAmylin funct.": 0.9},
      {"binder": "B10", "Ratio hCT/hAmylin funct.": 1.6},
      {"binder": "B11", "Ratio hCT/hAmylin funct.": 2.2},
      {"binder": "B12", "Ratio hCT/hAmylin funct.": 1.8},
      {"binder": "B13", "Ratio hCT/hAmylin funct.": 2.9},
      {"binder": "B14", "Ratio hCT/hAmylin funct.": 2.1},
      {"binder": "B15", "Ratio hCT/hAmylin funct.": 1.2}
    ]}
  ]
}
